Reference: US20200140551A1 (GlaxoSmithKline, published 2020)

Columns and labels:
[1] = target: T1, human ICOS on human T cells (human, UniProt Q9Y6W8 21-167); assay: flow cytometry, activated human CD4 T cells, FITC MFI, donor 1141F45
T1 construct: endogenous receptor on primary cells; also called ICOS on CD4+ and CD8+ T cells of healthy human donors
T1 sequence: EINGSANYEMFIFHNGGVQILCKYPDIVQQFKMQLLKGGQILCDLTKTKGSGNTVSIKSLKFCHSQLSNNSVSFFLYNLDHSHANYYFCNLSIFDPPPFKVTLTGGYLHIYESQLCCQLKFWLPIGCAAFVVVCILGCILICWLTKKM
Description: (§1) Binding of H2L5 hIgG4PE was assessed in both naive and activated CD3+ T cells.
(§2) Either naive and/or activated CD3+ T cells were re-suspended in PBS with 0.1% BSA (FACS Buffer) containing Human FcR Blocking Solution at 2×10⁶ cells/mL (5 μl FcR Blocking Solution+[…] FACS Buffer per 1 mL). At a concentration of 2×10⁵ cells/well, 100 μl cells were placed into 2 mL 96 well Assay Blocks and incubated at room temperature for 15 minutes. During the incubation, a titration of the binding antibodies, anti-ICOS (H2L5 hIgG4PE) or IgG4 Isotype Control antibody was prepared as a 2× concentration. […] Following the binding incubation, cells were washed twice in 1 mL of FACS buffer, centrifuging at 400×g for 5 minutes at room temperature.
(§3) Data acquisition and compensation were performed on BD FACS instruments, LSR Fortessa X-20 or FACS Canto II using BD Diva (ver. 8.0) software. Data analysis employed Flow Jo software (ver.10.0.8r1). Results are reported as both MFI (Median Fluorescence Intensity) and Percent of cells positive for human IgG kappa light chain FITC staining out of the total live cells or appropriate parent population. EC50s were determined using Graphpad Prism 5 software (ver. 5.04) with non-linear regression of transformed data (X=(log(X)) using a variable slope with 4 parameters (log(Agonist) vs. response—Variable slope).

human ICOS = target: T2, human ICOS (human, UniProt Q9Y6W8 21-140, limits assumed); assay: MSD competition assay: inhibition of ICOS-L binding to ICOS by titrated antibody, bar chart in raw luminescence units
T2 sequence: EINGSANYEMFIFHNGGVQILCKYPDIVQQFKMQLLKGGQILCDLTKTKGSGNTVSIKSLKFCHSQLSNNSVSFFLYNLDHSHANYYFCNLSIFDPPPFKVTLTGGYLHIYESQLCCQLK

[2] = target: T1, human ICOS on human T cells; assay: cell-based or functional assay
[3] = target: T1, human ICOS on human T cells; assay: flow cytometry, activated human CD8 T cells, percent FITC positive, mean of donors
Description: as §2, §3

[4] = target: T1, human ICOS on human T cells; assay: flow cytometry, activated human CD8 T cells, percent FITC positive, donor 1173F42
Description: as §2, §3

[5] = target: T1, human ICOS on human T cells; assay: flow cytometry, activated human CD8 T cells, percent FITC positive, donor 1149M52
Description: as §1, §2, §3

[6] = target: T1, human ICOS on human T cells; assay: flow cytometry, activated human CD4 T cells, percent FITC positive, median of donors
Description: as §1, §2, §3

[7] = target: T1, human ICOS on human T cells; assay: flow cytometry, activated human CD8 T cells, FITC MFI, donor 1149M52
Description: as §1, §2, §3

B1: H2L5 hIgG4PE (antibody)
heavy: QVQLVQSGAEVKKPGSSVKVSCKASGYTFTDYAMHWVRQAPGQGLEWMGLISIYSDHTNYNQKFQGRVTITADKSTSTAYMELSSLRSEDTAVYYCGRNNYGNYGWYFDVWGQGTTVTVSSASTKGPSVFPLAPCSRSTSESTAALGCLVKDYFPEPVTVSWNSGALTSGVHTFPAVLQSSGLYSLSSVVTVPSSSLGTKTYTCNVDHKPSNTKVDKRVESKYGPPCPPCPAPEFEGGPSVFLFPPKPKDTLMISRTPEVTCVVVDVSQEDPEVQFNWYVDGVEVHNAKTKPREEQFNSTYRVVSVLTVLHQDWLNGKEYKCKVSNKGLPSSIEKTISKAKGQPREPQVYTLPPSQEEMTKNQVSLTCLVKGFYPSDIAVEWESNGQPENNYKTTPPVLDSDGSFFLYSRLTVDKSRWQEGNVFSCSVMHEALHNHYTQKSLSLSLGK
light: EIVLTQSPATLSLSPGERATLSCSASSSVSYMHWYQQKPGQAPRLLIYDTSKLASGIPARFSGSGSGTDYTLTISSLEPEDFAVYYCFQGSGYPYTFGQGTKLEIKRTVAAPSVFIFPPSDEQLKSGTASVVCLLNNFYPREAKVQWKVDNALQSGNSQESVTEQDSKDSTYSLSSTLTLSKADYEKHKVYACEVTHQGLSSPVTKSFNRGEC
notes: also called 422 H2L5 hIgG4PE; H2L5 IgG4PE; copies: 2 + 2
[1]
  EC50: 1.27 µg/mL
Human ICOS
  IC50 (read off the curve): ~2 µg/mL
[2]
  EC50, CD4+CD25+, PBMC activation assay, donor 185M45, 24 hr: 2.4 µg/mL
  EC50, CD4+CD25+, PBMC activation assay, donor 185M45, 48 hr: 0.5 µg/mL
  EC50, CD4+CD25+, PBMC activation assay, donor 1124F36, 24 hr: 0.6 µg/mL
  EC50, CD4+CD25+, PBMC activation assay, donor 1124F36, 48 hr: 0.6 µg/mL
  EC50, CD4+CD25+, PBMC activation assay, donor 1136F50, 24 hr: 0.3 µg/mL
  EC50, CD4+CD25+, PBMC activation assay, donor 1136F50, 48 hr: 0.6 µg/mL
  EC50, CD4+CD25+, PBMC activation assay, donor 1149M52, 24 hr: 0.6 µg/mL
  EC50, CD4+CD25+, PBMC activation assay, donor 1149M52, 48 hr: 0.4 µg/mL
  EC50, CD4+CD69+, PBMC activation assay, donor 185M45, 24 hr: 0.8 µg/mL
  EC50, CD4+CD69+, PBMC activation assay, donor 1124F36, 24 hr: 1.1 µg/mL
  EC50, CD4+CD69+, PBMC activation assay, donor 1124F36, 48 hr: 1.1 µg/mL
  EC50, CD4+CD69+, PBMC activation assay, donor 1136F50, 24 hr: 0.5 µg/mL
  EC50, CD4+CD69+, PBMC activation assay, donor 1136F50, 48 hr: 0.4 µg/mL
  EC50, CD4+CD69+, PBMC activation assay, donor 1149M52, 24 hr: 0.5 µg/mL
  EC50, CD4+CD69+, PBMC activation assay, donor 1149M52, 48 hr: 0.4 µg/mL
  EC50, CD4+Ki67+, PBMC activation assay, donor 185M45, 48 hr: 0.6 µg/mL
  EC50, CD4+Ki67+, PBMC activation assay, donor 1124F36, 48 hr: 0.8 µg/mL
  EC50, CD4+Ki67+, PBMC activation assay, donor 1149M52, 48 hr: 0.5 µg/mL
  EC50, CD4+OX40+, PBMC activation assay, donor 185M45, 24 hr: 1.6 µg/mL
  EC50, CD4+OX40+, PBMC activation assay, donor 1124F36, 24 hr: 0.6 µg/mL
  EC50, CD4+OX40+, PBMC activation assay, donor 1124F36, 48 hr: 1.2 µg/mL
  EC50, CD4+OX40+, PBMC activation assay, donor 1136F50, 24 hr: 0.2 µg/mL
  EC50, CD4+OX40+, PBMC activation assay, donor 1136F50, 48 hr: 0.4 µg/mL
  EC50, CD4+OX40+, PBMC activation assay, donor 1149M52, 24 hr: 0.6 µg/mL
  EC50, CD4+OX40+, PBMC activation assay, donor 1149M52, 48 hr: 0.4 µg/mL
  EC50, CD8+CD25+, PBMC activation assay, donor 185M45, 24 hr: 2 µg/mL
  EC50, CD8+CD25+, PBMC activation assay, donor 185M45, 48 hr: 0.5 µg/mL
  EC50, CD8+CD25+, PBMC activation assay, donor 1124F36, 24 hr: 0.6 µg/mL
  EC50, CD8+CD25+, PBMC activation assay, donor 1124F36, 48 hr: 0.5 µg/mL
  EC50, CD8+CD25+, PBMC activation assay, donor 1136F50, 24 hr: 0.4 µg/mL
  EC50, CD8+CD25+, PBMC activation assay, donor 1136F50, 48 hr: 0.7 µg/mL
  EC50, CD8+CD25+, PBMC activation assay, donor 1149M52, 24 hr: 1 µg/mL
  EC50, CD8+CD25+, PBMC activation assay, donor 1149M52, 48 hr: 0.4 µg/mL
  EC50, CD8+CD69+, PBMC activation assay, donor 185M45, 24 hr: 1.2 µg/mL
  EC50, CD8+CD69+, PBMC activation assay, donor 185M45, 48 hr: 0.5 µg/mL
  EC50, CD8+CD69+, PBMC activation assay, donor 1124F36, 24 hr: 0.8 µg/mL
  EC50, CD8+CD69+, PBMC activation assay, donor 1124F36, 48 hr: 1.1 µg/mL
  EC50, CD8+CD69+, PBMC activation assay, donor 1136F50, 24 hr: 0.5 µg/mL
  EC50, CD8+CD69+, PBMC activation assay, donor 1136F50, 48 hr: 0.6 µg/mL
  EC50, CD8+CD69+, PBMC activation assay, donor 1149M52, 24 hr: 0.6 µg/mL
  EC50, CD8+CD69+, PBMC activation assay, donor 1149M52, 48 hr: 0.4 µg/mL
  EC50, CD8+Ki67+, PBMC activation assay, donor 185M45, 48 hr: 0.4 µg/mL
  EC50, CD8+Ki67+, PBMC activation assay, donor 1124F36, 48 hr: 0.7 µg/mL
  EC50, CD8+Ki67+, PBMC activation assay, donor 1149M52, 48 hr: 0.3 µg/mL
  EC50, CD8+OX40+, PBMC activation assay, donor 185M45, 24 hr: 1.6 µg/mL
  EC50, CD8+OX40+, PBMC activation assay, donor 1124F36, 24 hr: 2.4 µg/mL
  EC50, CD8+OX40+, PBMC activation assay, donor 1124F36, 48 hr: 0.5 µg/mL
  EC50, CD8+OX40+, PBMC activation assay, donor 1136F50, 24 hr: 0.3 µg/mL
  EC50, CD8+OX40+, PBMC activation assay, donor 1136F50, 48 hr: 0.5 µg/mL
  EC50, CD8+OX40+, PBMC activation assay, donor 1149M52, 24 hr: 1.5 µg/mL
  EC50, CD8+OX40+, PBMC activation assay, donor 1149M52, 48 hr: 0.3 µg/mL
  EC50, IFN-γ, PBMC activation assay, donor 185M45, 24 hr: 0.3 µg/mL
  EC50, IFN-γ, PBMC activation assay, donor 185M45, 48 hr: 0.7 µg/mL
  EC50, IFN-γ, PBMC activation assay, donor 1124F36, 24 hr: 0.3 µg/mL
  EC50, IFN-γ, PBMC activation assay, donor 1124F36, 48 hr: 0.5 µg/mL
  EC50, IFN-γ, PBMC activation assay, donor 1136F50, 24 hr: 0.4 µg/mL
  EC50, IFN-γ, PBMC activation assay, donor 1136F50, 48 hr: 1.5 µg/mL
  EC50, IFN-γ, PBMC activation assay, donor 1149M52, 24 hr: 0.2 µg/mL
  EC50, IFN-γ, PBMC activation assay, donor 1149M52, 48 hr: 0.6 µg/mL
  EC50, IL-6, PBMC activation assay, donor 185M45, 24 hr: 0.7 µg/mL
  EC50, IL-6, PBMC activation assay, donor 185M45, 48 hr: 0.8 µg/mL
  EC50, IL-6, PBMC activation assay, donor 1136F50, 24 hr: 0.7 µg/mL
  EC50, IL-6, PBMC activation assay, donor 1136F50, 48 hr: 1.1 µg/mL
  EC50, IL-6, PBMC activation assay, donor 1149M52, 24 hr: 0.2 µg/mL
  EC50, IL-6, PBMC activation assay, donor 1149M52, 48 hr: 0.3 µg/mL
  EC50, IL-10, PBMC activation assay, donor 185M45, 24 hr: 0.7 µg/mL
  EC50, IL-10, PBMC activation assay, donor 185M45, 48 hr: 0.8 µg/mL
  EC50, IL-10, PBMC activation assay, donor 1124F36, 24 hr: 0.7 µg/mL
  EC50, IL-10, PBMC activation assay, donor 1124F36, 48 hr: 0.6 µg/mL
  EC50, IL-10, PBMC activation assay, donor 1136F50, 24 hr: 1.7 µg/mL
  EC50, IL-10, PBMC activation assay, donor 1136F50, 48 hr: 1.3 µg/mL
  EC50, IL-10, PBMC activation assay, donor 1149M52, 24 hr: 0.5 µg/mL
  EC50, IL-10, PBMC activation assay, donor 1149M52, 48 hr: 0.6 µg/mL
  EC50, IL-17a, PBMC activation assay, donor 185M45, 24 hr: 0.8 µg/mL
  EC50, IL-17a, PBMC activation assay, donor 185M45, 48 hr: 1.1 µg/mL
  EC50, IL-17a, PBMC activation assay, donor 1124F36, 24 hr: 0.6 µg/mL
  EC50, IL-17a, PBMC activation assay, donor 1124F36, 48 hr: 0.8 µg/mL
  EC50, IL-17a, PBMC activation assay, donor 1136F50, 24 hr: 1.4 µg/mL
  EC50, IL-17a, PBMC activation assay, donor 1136F50, 48 hr: 1.6 µg/mL
  EC50, IL-17a, PBMC activation assay, donor 1149M52, 24 hr: 0.7 µg/mL
  EC50, IL-17a, PBMC activation assay, donor 1149M52, 48 hr: 1 µg/mL
  EC50, TNF-α, PBMC activation assay, donor 185M45, 48 hr: 0.5 µg/mL
  EC50, TNF-α, PBMC activation assay, donor 1124F36, 48 hr: 0.3 µg/mL
  EC50, TNF-α, PBMC activation assay, donor 1136F50, 48 hr: 0.3 µg/mL
  EC50, TNF-α, PBMC activation assay, donor 1149M52, 48 hr: 0.2 µg/mL
[3]
  EC50: 0.692 µg/mL
[4]
  EC50: 0.371 µg/mL
[5]
  EC50: 0.547 µg/mL
[6]
  EC50: 0.834 µg/mL
[7]
  EC50: 0.74 µg/mL
